These results are taken from paper PMC6181439 (2018).

The target in test [1] is T1, Recombinant mouse PrP full length (23-230) (mouse, UniProt P04925 23-230). Put plainly: SPR.
In test [2] the target is T1, Recombinant mouse PrP full length …. Nature of the test: SPR. The source holds these as a separate data set. For orientation: Surface plasmon resonance follows binding to a sensor surface in real time, without labels.

The term Kd denotes the concentration at which binding is half-saturated. As usually defined, the koff is the rate constant with which the complex falls apart.

T1 sequence (P04925 23-230): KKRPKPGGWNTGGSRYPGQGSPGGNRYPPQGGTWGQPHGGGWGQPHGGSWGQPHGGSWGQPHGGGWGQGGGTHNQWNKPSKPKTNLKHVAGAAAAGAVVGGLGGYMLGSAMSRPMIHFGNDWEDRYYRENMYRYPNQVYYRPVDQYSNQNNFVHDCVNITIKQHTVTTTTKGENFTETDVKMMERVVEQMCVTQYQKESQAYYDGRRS

B1: scPOM2 (scFv, V domains shown)
VH: VKLQESGGEVVRPGTSVKVSCKASGYAFTNYLIEWVKQRPGQGLEWIGVINPGSGDTNYNEKFKGKATLTADKSSSTAYMQLNSLTSDDSAVYFCARSGAAAPTYYAMDYWGQGVSVTVSS
VL: DIVMTQSHKFMSTSVGDRVSITCKASQVGTALAWYQQKPGQSPKLLIYWASTRHTGVPDRFTGSGSGTDFTLTISNVQSEDLSDYFCQQYSSYPTFGGGTKLEIK
As for B1, in test [1], the dissociation constant Kd was found to be 0.023 µM. Besides, in test [2], the off-rate constant (koff) turned out to be 0.00036 s⁻¹.

B2: Full IgG POM2 monoclonal antibody (antibody, V domains shown)
VH: VKLQESGGEVVRPGTSVKVSCKASGYAFTNYLIEWVKQRPGQGLEWIGVINPGSGDTNYNEKFKGKATLTADKSSSTAYMQLNSLTSDDSAVYFCARSGAAAPTYYAMDYWGQGVSVTVSS
VL: DIVMTQSHKFMSTSVGDRVSITCKASQVGTALAWYQQKPGQSPKLLIYWASTRHTGVPDRFTGSGSGTDFTLTISNVQSEDLSDYFCQQYSSYPTFGGGTKLEIK
As to B2, the dissociation constant Kd in test [1] worked out at 0.0001 µM. Also, the koff in test [2] turned out to be 9.5e-06 s⁻¹.
